Test results: the supplement of paper PMC7877785
± gives the uncertainty stated by the source.

Experiment: self-splicing fitness, log relative to wild type (ln ratio); higher = more splicing; Tetrahymena group I intron in knt gene, E. coli kanamycin selection, DiMSum; sequences stand for … in CUCUCU…GGAGGGAAAAGUUAUCAGGCAUGCACCUGGUAGCUAGUCUUUAAACCAAUAGAUUGCAUCGGUUUAAAAGGCAAGACCGUCAAAUUGCGGGAAAGGGGUCAACAGCCGUUCAGUACCAAGUCUCAGGGGAAACUUUGAGAUGGCCUUGCAAAGGGUAUGGUAAUAAGCUGACGGACAUGGUCCUAACCACGCAGCCAAGUCCUAAGUCAACAGAUCUUCUGUUGAUAUGGAUGCAGUUCACAGACUAAAUGUCGGUCGGGGAAGAUGUAUUCUUCUCAUAAGAUAUAGUCGGACCUCUCCUUAAUGGGAGCUAGCGGAUGAAGUGAUGCAACACUGGAGCCGCUGGGAACUAAUUUGUAUGCGAAAGUAUAUUGAUUAGUUUUGGAGUACUCGUGGUCG
Method in brief: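 Colonies from six replicate transformations of E. coli BL21(DE3) were pooled and amplicon-sequenced on an Illumina HiSeq 2500. The library placed an intron with all eight P1ex-region nucleotides randomised inside the knt kanamycin-resistance gene on pET-22b(+), and cells grew overnight at 37°C or 30°C on LB agar with or without 25 μg/mL kanamycin (plus 100 μg/mL carbenicillin, 50 μM IPTG, 0.2% rhamnose). Fitness is the DiMSum error-weighted combination of wild-type-normalised replicate fold changes, kanamycin versus none.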

| Sequence | self-splicing fitness (ln) (30 °C) | self-splicing fitness (ln) (37 °C) |
| --- | --- | --- |
| CGCGAGCAAUAUUACGAAGU | -3.36 ± 0.21 | -2.57 ± 0.31 |
| UGGGAGCAAUAUUACGUCUC | -3.13 ± 0.32 | -2.93 ± 0.44 |
| CAUAAGCAAUAUUACGGCAG | 0.0468 ± 0.075 | -0.545 ± 0.089 |
| AGCAAGCAAUAUUACGUAAA | -2.29 ± 0.14 | -0.968 ± 0.15 |
| AUCGAGCAAUAUUACGAAUA | -3.09 ± 0.44 | -2.21 ± 0.35 |
| GUCUAGCAAUAUUACGCGAG | -1.08 ± 0.13 | 0.182 ± 0.13 |
| AGCUAGCAAUAUUACGACGC | -1.63 ± 0.098 | -0.406 ± 0.13 |
| UUUCAGCAAUAUUACGUCGU | -3.77 ± 0.17 | -1.93 ± 0.11 |
| CCGGAGCAAUAUUACGUAAC | -2.38 ± 0.38 | -1.45 ± 0.43 |
| GAUAAGCAAUAUUACGUAGC | -2.22 ± 0.13 | -0.793 ± 0.12 |
| GUCUAGCAAUAUUACGCCCU | -0.702 ± 0.36 | -0.472 ± 0.37 |
| CAUAAGCAAUAUUACGCGAA | -2.82 ± 0.25 | -2.59 ± 0.34 |
| CACAAGCAAUAUUACGAAGA | -2.71 ± 0.18 | -2.36 ± 0.2 |
| UGAUAGCAAUAUUACGGUCU | -0.913 ± 0.12 | -0.257 ± 0.15 |
| GUCAAGCAAUAUUACGUAUA | -2.31 ± 0.13 | -0.798 ± 0.14 |
| GAACAGCAAUAUUACGUCUA | -0.567 ± 0.074 | -0.586 ± 0.073 |
| GGCUAGCAAUAUUACGGUUG | -0.166 ± 0.076 | -0.197 ± 0.098 |
| CGUAAGCAAUAUUACGUAAC | -4.35 ± 0.26 | -2.51 ± 0.21 |
| CUGAAGCAAUAUUACGUUGU | -4.42 ± 0.13 | -2.28 ± 0.14 |
| CCGGAGCAAUAUUACGUGAU | -2.17 ± 0.19 | -1.54 ± 0.3 |
| UAGGAGCAAUAUUACGACAU | -3.83 ± 0.039 | -2.8 ± 0.047 |
| UCCAAGCAAUAUUACGCCUC | -2.33 ± 0.29 | -2.53 ± 0.28 |
| GCGUAGCAAUAUUACGUAGA | -3.35 ± 0.19 | -2.88 ± 0.29 |
| GCUGAGCAAUAUUACGCGUU | -2.22 ± 0.15 | -1.73 ± 0.22 |
| GAGGAGCAAUAUUACGGCGC | -1.62 ± 0.34 | -0.697 ± 0.37 |
| UCCAAGCAAUAUUACGGUAA | -0.334 ± 0.067 | 0.257 ± 0.076 |

| Sequence | self-splicing fitness (ln) (30 °C) | self-splicing fitness (ln) (37 °C) |
| --- | --- | --- |
| AUGGAGCAAUAUUACGUUCU | -2.64 ± 0.22 | -3.2 ± 0.4 |
| GGGAAGCAAUAUUACGCUGC | -2.83 ± 0.48 | – |
| CCUGAGCAAUAUUACGAGAU | -1.86 ± 0.16 | -2.09 ± 0.23 |
| GAAAAGCAAUAUUACGCCCU | 0.325 ± 0.12 | -0.233 ± 0.14 |
| GACGAGCAAUAUUACGGGGC | -2.83 ± 0.13 | -2.25 ± 0.16 |
| UUUCAGCAAUAUUACGUCUG | -3.65 ± 0.22 | -1.87 ± 0.16 |
| UAUUAGCAAUAUUACGCGGG | -2.9 ± 0.18 | -1.59 ± 0.23 |
| UCUUAGCAAUAUUACGAUAG | -1.77 ± 0.17 | -1.63 ± 0.16 |
| AUGAAGCAAUAUUACGACUC | 0.055 ± 0.11 | 0.123 ± 0.13 |
| CGAGAGCAAUAUUACGGAUA | -2.25 ± 0.37 | -1.82 ± 0.41 |
| UUACAGCAAUAUUACGGCAG | -0.142 ± 0.077 | 0.248 ± 0.11 |
| AGCGAGCAAUAUUACGGAAG | -4.34 ± 0.42 | -2.68 ± 0.29 |
| UGAAAGCAAUAUUACGGCCG | -0.266 ± 0.091 | 0.807 ± 0.15 |
| CCAGAGCAAUAUUACGGGCA | -2.92 ± 0.28 | -2.64 ± 0.38 |
| AGAAAGCAAUAUUACGAUCC | -0.604 ± 0.07 | 0.0529 ± 0.11 |
| CAGGAGCAAUAUUACGGCUA | -2.6 ± 0.19 | -1.34 ± 0.16 |
| AUCAAGCAAUAUUACGUACG | -2.54 ± 0.11 | -0.576 ± 0.11 |
| GCCUAGCAAUAUUACGGGGC | – | -2.81 ± 0.47 |
| CCGGAGCAAUAUUACGCGCU | -1.24 ± 0.17 | – |
| GACCAGCAAUAUUACGGCAG | -3.74 ± 0.3 | -3.28 ± 0.25 |
| UGUUAGCAAUAUUACGCUUC | – | -1.5 ± 0.48 |
| AAACAGCAAUAUUACGGUGG | -2.61 ± 0.096 | -1.93 ± 0.12 |
| ACAAAGCAAUAUUACGUCAG | -2.7 ± 0.14 | -1.47 ± 0.12 |
| GUCGAGCAAUAUUACGCACG | -1 ± 0.28 | – |
| UGCAAGCAAUAUUACGGGGG | -3.16 ± 0.16 | -2.04 ± 0.15 |
| AAAAAGCAAUAUUACGGGAC | -1.94 ± 0.098 | -0.477 ± 0.11 |

| Sequence | self-splicing fitness (ln) (30 °C) | self-splicing fitness (ln) (37 °C) |
| --- | --- | --- |
| GUUUAGCAAUAUUACGUACC | -1.45 ± 0.48 | – |
| CCCUAGCAAUAUUACGAACA | – | -2.55 ± 0.42 |
| CCCGAGCAAUAUUACGCCAC | -3.54 ± 0.26 | -2.84 ± 0.31 |
| GGAAAGCAAUAUUACGGGUG | -1.91 ± 0.14 | -1.78 ± 0.15 |
| CUAGAGCAAUAUUACGCGCC | -2.12 ± 0.38 | – |
| ACUAAGCAAUAUUACGUAUC | -2.91 ± 0.15 | -2.15 ± 0.19 |
| CCUCAGCAAUAUUACGGUCG | -0.693 ± 0.069 | -0.505 ± 0.089 |
| AUACAGCAAUAUUACGUCAU | -1.53 ± 0.084 | -0.888 ± 0.088 |
| CCUCAGCAAUAUUACGUUGA | -3.03 ± 0.14 | -2.28 ± 0.14 |
| UUACAGCAAUAUUACGAGUG | -1.16 ± 0.069 | -0.895 ± 0.079 |
| AACAAGCAAUAUUACGUAAC | -3.29 ± 0.12 | -2.33 ± 0.17 |
| GGAGAGCAAUAUUACGGGUU | -3.71 ± 0.24 | -2.46 ± 0.19 |
| UUAGAGCAAUAUUACGAUGG | -1.02 ± 0.15 | 0.108 ± 0.19 |
| GCGAAGCAAUAUUACGCUGU | -1.5 ± 0.39 | – |
| CCCGAGCAAUAUUACGUAUU | -3.8 ± 0.17 | -3.48 ± 0.24 |
| CGGGAGCAAUAUUACGGAUG | -3.1 ± 0.23 | -2.75 ± 0.26 |
| CUAUAGCAAUAUUACGUCCU | -3.39 ± 0.22 | -2.7 ± 0.29 |
| UAGAAGCAAUAUUACGUCCA | -0.0908 ± 0.069 | 0.309 ± 0.1 |
| UCCCAGCAAUAUUACGGAUC | -2.71 ± 0.13 | -1.64 ± 0.14 |
| UAAUAGCAAUAUUACGGAUU | -2.69 ± 0.36 | -1.02 ± 0.28 |
| GCGAAGCAAUAUUACGUAGA | -3.57 ± 0.44 | -1.75 ± 0.37 |
| CAACAGCAAUAUUACGGAGC | -2.28 ± 0.15 | -3.18 ± 0.27 |
| CAUUAGCAAUAUUACGAUGG | -0.461 ± 0.076 | 0.0641 ± 0.083 |
| AUAUAGCAAUAUUACGUAGA | -2.19 ± 0.094 | -1.87 ± 0.15 |
| AGGGAGCAAUAUUACGCCAU | -3.13 ± 0.43 | – |
| CAUUAGCAAUAUUACGUAUG | -3.57 ± 0.2 | -2.9 ± 0.3 |
